# Measured values from publication PMC10786891, “Massively parallel profiling of RNA-targeting CRISPR-Cas13d”.
# Numbering of substitutions follows the chain as printed. Numbers in names are those of the source.
# T1: EsCas13d, nuclease-dead (Eubacterium siraeum, UniProt B0MS50, R295A;H300A;R849A;H854A)
# T1 sequence: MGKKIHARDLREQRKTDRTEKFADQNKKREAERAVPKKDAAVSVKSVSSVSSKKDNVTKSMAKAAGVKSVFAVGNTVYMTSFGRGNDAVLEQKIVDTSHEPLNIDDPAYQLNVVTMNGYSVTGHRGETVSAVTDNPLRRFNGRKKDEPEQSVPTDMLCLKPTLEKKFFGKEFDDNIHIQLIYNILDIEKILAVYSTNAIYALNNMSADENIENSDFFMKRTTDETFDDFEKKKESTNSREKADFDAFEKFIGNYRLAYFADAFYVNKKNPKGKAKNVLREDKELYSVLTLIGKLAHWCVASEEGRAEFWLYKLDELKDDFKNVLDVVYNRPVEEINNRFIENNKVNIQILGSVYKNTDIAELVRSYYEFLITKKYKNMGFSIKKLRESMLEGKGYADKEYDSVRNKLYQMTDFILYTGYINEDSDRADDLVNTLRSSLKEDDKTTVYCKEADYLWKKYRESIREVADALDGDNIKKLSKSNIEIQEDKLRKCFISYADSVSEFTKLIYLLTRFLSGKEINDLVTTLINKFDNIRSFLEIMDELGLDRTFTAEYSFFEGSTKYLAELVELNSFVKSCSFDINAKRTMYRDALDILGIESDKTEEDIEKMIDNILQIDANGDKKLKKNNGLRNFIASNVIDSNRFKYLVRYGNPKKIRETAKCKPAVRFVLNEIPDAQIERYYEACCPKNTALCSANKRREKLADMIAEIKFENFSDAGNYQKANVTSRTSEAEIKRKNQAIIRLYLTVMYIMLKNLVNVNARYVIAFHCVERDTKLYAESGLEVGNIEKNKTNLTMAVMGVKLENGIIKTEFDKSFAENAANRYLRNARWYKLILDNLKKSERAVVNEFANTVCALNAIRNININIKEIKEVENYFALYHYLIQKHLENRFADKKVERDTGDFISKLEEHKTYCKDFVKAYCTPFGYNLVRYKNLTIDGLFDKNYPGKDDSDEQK
# B1: target 1 MT 5'PFS UUC 3'PFS CCU (mixed)
# RNA 1: CACCCGUGCAAAAAUGCAGGGGUCUAAAACUGAGCGGAUAACCUCUCUAUGG
# RNA 2: GGGAAUGGAUCCACAUCUACGAAUUCUUCCCAUAGAGAGGUUAUCCGCUCACCUAGAUCGGAAGAGCACACGU
# B2: target 1 MT 5'PFS ACC 3'PFS UGU (mixed)
# RNA 1: B1 RNA 1
# RNA 2: B1 RNA 2 with U27A, U28C, C52U, C53G
# B3: target 1 MT 5'PFS ACG 3'PFS CUA (mixed)
# RNA 1: B1 RNA 1
# RNA 2: B1 RNA 2 with U27A, U28C, C29G, C53U, U54A
# B4: target 1 MT 5'PFS CUG 3'PFS CCG (mixed)
# RNA 1: B1 RNA 1
# RNA 2: B1 RNA 2 with U27C, C29G, U54G
# B5: target 1 MT 5'PFS AAG 3'PFS AGA (mixed)
# RNA 1: B1 RNA 1
# RNA 2: B1 RNA 2 with U27A, U28A, C29G, C52A, C53G, U54A
# B6: target 1 MT 5'PFS GGC 3'PFS ACG (mixed)
# RNA 1: B1 RNA 1
# RNA 2: B1 RNA 2 with U27G, U28G, C52A, U54G
# B7: target 1 MT 5'PFS GGA 3'PFS AGC (mixed)
# RNA 1: B1 RNA 1
# RNA 2: B1 RNA 2 with U27G, U28G, C29A, C52A, C53G, U54C
# B8: target 1 MT 5'PFS GCA 3'PFS ACC (mixed)
# RNA 1: B1 RNA 1
# RNA 2: B1 RNA 2 with U27G, U28C, C29A, C52A, U54C
# B9: target 1 C21U,C22A (mixed)
# RNA 1: B1 RNA 1
# RNA 2: B1 RNA 2 with U27G, C29A, C30A, C31U, U54G
# B10: target 1 MT 5'PFS ACG 3'PFS CUG (mixed)
# RNA 1: B1 RNA 1
# RNA 2: B1 RNA 2 with U27A, U28C, C29G, C53U, U54G
# B11: target 1 MT 5'PFS GCA 3'PFS CGC (mixed)
# RNA 1: B1 RNA 1
# RNA 2: B1 RNA 2 with U27G, U28C, C29A, C53G, U54C
# B12: target 1 MT 5'PFS AUG 3'PFS UGA (mixed)
# RNA 1: B1 RNA 1
# RNA 2: B1 RNA 2 with U27A, C29G, C52U, C53G, U54A
# B13: target 1 MT 5'PFS GCA 3'PFS CGU (mixed)
# RNA 1: B1 RNA 1
# RNA 2: B1 RNA 2 with U27G, U28C, C29A, C53G
# B14: target 1 MT 5'PFS UCA 3'PFS UUA (mixed)
# RNA 1: B1 RNA 1
# RNA 2: B1 RNA 2 with U28C, C29A, C52U, C53U, U54A
# B15: target 1 MT 5'PFS AGG 3'PFS CGU (mixed)
# RNA 1: B1 RNA 1
# RNA 2: B1 RNA 2 with U27A, U28G, C29G, C53G
# B16: target 1 MT 5'PFS CUG 3'PFS AAG (mixed)
# RNA 1: B1 RNA 1
# RNA 2: B1 RNA 2 with U27C, C29G, C52A, C53A, U54G
# B17: target 1 MT 5'PFS CAG 3'PFS UUG (mixed)
# RNA 1: B1 RNA 1
# RNA 2: B1 RNA 2 with U27C, U28A, C29G, C52U, C53U, U54G
# B18: target 1 MT 5'PFS GAA 3'PFS UGA (mixed)
# RNA 1: B1 RNA 1
# RNA 2: B1 RNA 2 with U27G, U28A, C29A, C52U, C53G, U54A
# B19: target 1 MT 5'PFS GUG 3'PFS CUC (mixed)
# RNA 1: B1 RNA 1
# RNA 2: B1 RNA 2 with U27G, C29G, C53U, U54C
# B20: target 1 MT 5'PFS GAG 3'PFS UAG (mixed)
# RNA 1: B1 RNA 1
# RNA 2: B1 RNA 2 with U27G, U28A, C29G, C52U, C53A, U54G
# B21: target 1 MT 5'PFS GAA 3'PFS UGU (mixed)
# RNA 1: B1 RNA 1
# RNA 2: B1 RNA 2 with U27G, U28A, C29A, C52U, C53G
# B22: target 1 MT 5'PFS AGG 3'PFS CGG (mixed)
# RNA 1: B1 RNA 1
# RNA 2: B1 RNA 2 with U27A, U28G, C29G, C53G, U54G
# B23: target 1 MT 5'PFS GGA 3'PFS GGU (mixed)
# RNA 1: B1 RNA 1
# RNA 2: B1 RNA 2 with U27G, U28G, C29A, C52G, C53G
# B24: target 1 MT 5'PFS UCA 3'PFS UUG (mixed)
# RNA 1: B1 RNA 1
# RNA 2: B1 RNA 2 with U28C, C29A, C52U, C53U, U54G
# B25: target 1 MT 5'PFS UGA 3'PFS ACG (mixed)
# RNA 1: B1 RNA 1
# RNA 2: B1 RNA 2 with U28G, C29A, C52A, U54G
# B26: target 1 MT 5'PFS GAG 3'PFS UAC (mixed)
# RNA 1: B1 RNA 1
# RNA 2: B1 RNA 2 with U27G, U28A, C29G, C52U, C53A, U54C
# B27: target 1 MT 5'PFS GUG 3'PFS CUA (mixed)
# RNA 1: B1 RNA 1
# RNA 2: B1 RNA 2 with U27G, C29G, C53U, U54A
# B28: target 1 MT 5'PFS CCU 3'PFS AAA (mixed)
# RNA 1: B1 RNA 1
# RNA 2: B1 RNA 2 with U27C, U28C, C29U, C52A, C53A, U54A
# B29: target 1 insC 3' of 20,insC 3' of 18 (mixed)
# RNA 1: B1 RNA 1
# RNA 2: GGGAAUGGAUCCACAUCUACGAAUUCGUACCACUACGAGAGGUUAUCCGCUCACCGAGAUCGGAAGAGCACACGU
# B30: target 1 MT 5'PFS CGC 3'PFS CCG (mixed)
# RNA 1: B1 RNA 1
# RNA 2: B1 RNA 2 with U27C, U28G, U54G
# B31: target 1 MT 5'PFS GAA 3'PFS UGC (mixed)
# RNA 1: B1 RNA 1
# RNA 2: B1 RNA 2 with U27G, U28A, C29A, C52U, C53G, U54C
# B32: target 1 MT 5'PFS GGC 3'PFS ACA (mixed)
# RNA 1: B1 RNA 1
# RNA 2: B1 RNA 2 with U27G, U28G, C52A, U54A
# B33: target 1 C4A,A9U (mixed)
# RNA 1: B1 RNA 1
# RNA 2: B1 RNA 2 with U27G, C29A, A43U, C48A, U54G
# B34: target 1 MT 5'PFS AGG 3'PFS CGC (mixed)
# RNA 1: B1 RNA 1
# RNA 2: B1 RNA 2 with U27A, U28G, C29G, C53G, U54C
# B35: target 1 MT 5'PFS GAA 3'PFS CCG (mixed)
# RNA 1: B1 RNA 1
# RNA 2: B1 RNA 2 with U27G, U28A, C29A, U54G
# B36: target 1 MT 5'PFS CCU 3'PFS AAC (mixed)
# RNA 1: B1 RNA 1
# RNA 2: B1 RNA 2 with U27C, U28C, C29U, C52A, C53A, U54C
# B37: target 1 MT 5'PFS GAG 3'PFS UAA (mixed)
# RNA 1: B1 RNA 1
# RNA 2: B1 RNA 2 with U27G, U28A, C29G, C52U, C53A, U54A
# B38: target 1 MT 5'PFS GAA 3'PFS CCU (mixed)
# RNA 1: B1 RNA 1
# RNA 2: B1 RNA 2 with U27G, U28A, C29A
# B39: target 1 MT 5'PFS AAG 3'PFS AGG (mixed)
# RNA 1: B1 RNA 1
# RNA 2: B1 RNA 2 with U27A, U28A, C29G, C52A, C53G, U54G
# B40: target 1 C2U,G12C (mixed)
# RNA 1: B1 RNA 1
# RNA 2: B1 RNA 2 with U27G, C29A, G40C, C50U, U54G
# Biological target: T1, EsCas13d, nuclease-dead
# Test: crRNA (strand 1, pre-loaded); Mg2+; 40 mM Tris-HCl pH 7.5, 150 mM NaCl, 6 mM MgCl2, 1 mM DTT, 0.1% Tween-20, 0.2 mg/ml BSA; 25 C; 10 min per concentration, then washed
# Conditions: tags: His6-TwinStrep-SUMO cleaved; N-terminal SNAP kept (SNAP-Surface 488); label: 3' end held by stalled T7 RNA polymerase
row,Binder,Kd
1,B1,66 ± 27 nM
2,B2,~19 nM
3,B3,~32 nM
4,B4,3.05 ± 0.55 nM
5,B5,38 ± 14 nM
6,B6,13.5 ± 2.85 nM
7,B7,15.6 ± 2.9 nM
8,B8,~32 nM
9,B9,28.9 ± 2 nM
10,B10,53.5 ± 23 nM
11,B11,71 ± 27 nM
12,B12,52 ± 19.5 nM
13,B13,11.4 ± 2.2 nM
14,B14,10.8 ± 2.25 nM
15,B15,~90 nM
16,B16,12.4 ± 3.4 nM
17,B17,19.7 ± 3.55 nM
18,B18,30.5 ± 9 nM
19,B19,19.4 ± 2.75 nM
20,B20,46.5 ± 15.5 nM

row,Binder,Kd
1,B21,56.5 ± 14.5 nM
2,B22,41 ± 11.5 nM
3,B23,45 ± 18 nM
4,B24,37 ± 9.5 nM
5,B25,110 ± 50 nM
6,B26,~60 nM
7,B27,16.2 ± 2 nM
8,B28,59.5 ± 20 nM
9,B29,6.1 ± 0.5 nM
10,B30,19 ± 7 nM
11,B31,10.8 ± 2.05 nM
12,B32,20 ± 10 nM
13,B33,4.45 ± 0.25 nM
14,B34,44 ± 19 nM
15,B35,21 ± 5.5 nM
16,B36,18 ± 4.5 nM
17,B37,28.5 ± 8 nM
18,B38,~21 nM
19,B39,60.5 ± 22.5 nM
20,B40,7.1 ± 0.5 nM
